The record followed here is paper PMC12329598.

The target in assay [1] is 1-442 Rap1GAP1a-RlucII, P47736-1. The assay can be described thus: ebBRET (Rap1GAP1a-RlucII recruitment to rGFP-CaaX at the plasma membrane). Particulars: A293 cells with μ-opioid receptor, 48 h post-transfection, read off a plot.
Assay [2] shares this target. The assay can be described thus: ebBRET (agonist-induced net BRET, Rap1GAP1a-RlucII recruitment to the plasma membrane). Particulars: 10 μM DAMGO; parent: est. 0.22; read off a plot.
Assay [3] shares this target. The assay can be described thus: ebBRET (Rap1GAP1a-RlucII recruitment to the plasma membrane). Particulars: A293 cells, parent: est. 0.17, read off a plot.
Where [4] appears, read: double mutant in Gαo(Q205L) background, Gαo(Q205L) bar in same panel est. 0.39.

Chain of 1-442 Rap1GAP1a-RlucII, P47736-1 (P47736 1-442 S437A/S439A/S441A): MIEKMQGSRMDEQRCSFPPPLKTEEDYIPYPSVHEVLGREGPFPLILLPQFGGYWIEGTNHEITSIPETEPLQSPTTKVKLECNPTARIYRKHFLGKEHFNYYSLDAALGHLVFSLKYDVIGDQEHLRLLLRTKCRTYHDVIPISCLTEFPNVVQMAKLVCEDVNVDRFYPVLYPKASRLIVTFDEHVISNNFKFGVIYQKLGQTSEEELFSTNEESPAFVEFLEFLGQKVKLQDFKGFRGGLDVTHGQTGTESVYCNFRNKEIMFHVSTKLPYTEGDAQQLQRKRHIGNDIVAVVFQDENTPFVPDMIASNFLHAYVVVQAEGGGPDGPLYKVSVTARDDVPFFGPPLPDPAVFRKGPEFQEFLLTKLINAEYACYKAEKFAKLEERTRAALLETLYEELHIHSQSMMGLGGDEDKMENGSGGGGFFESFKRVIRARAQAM

Take HA-Gαo^(WT) (from UniProt P09471) A221D: the response amounted to 0.18 BRET ratio in assay [1] (10 μM DAMGO, parent: est. 0.32); 0.04 BRET ratio in assay [1] (vehicle, parent: est. 0.12); 0.14 Net BRET in assay [2].

Consider HA-Gαo^(WT) (from UniProt P09471) E237K, for which the response in assay [1] (10 μM DAMGO, parent: est. 0.32) amounted to 0.11 BRET ratio; in assay [1] (vehicle, parent: est. 0.12) it was 0.04 BRET ratio; in assay [2] it was 0.07 Net BRET.

For the substance HA-Gαo^(WT) (from UniProt P09471) E246G, the response in assay [1] (10 μM DAMGO, parent: est. 0.32) was determined as 0.06 BRET ratio; in assay [1] (vehicle, parent: est. 0.12) it was 0.035 BRET ratio; in assay [2], 0.03 Net BRET.

As for HA-Gαo^(WT) (from UniProt P09471) G203E, the response came to 0.08 BRET ratio in assay [1] (10 μM DAMGO, parent: est. 0.32); 0.035 BRET ratio in assay [1] (vehicle, parent: est. 0.12); 0.04 Net BRET in assay [2].

Consider HA-Gαo^(WT) (from UniProt P09471) N242T, for which the response in assay [1] (10 μM DAMGO, parent: est. 0.32) is 0.3 BRET ratio; in assay [1] (vehicle, parent: est. 0.12), 0.07 BRET ratio; in assay [2], 0.23 Net BRET.

As for HA-Gαo^(WT) (from UniProt P09471) Q205L, the response in assay [3] (no-Gαo control bar est. 0.07) turned out to be 0.39 BRET ratio.

“HA-Gαo^(WT) (from UniProt P09471) Q205L; A221D”: the response in assay [3] (setting [4]) was 0.37 BRET ratio.

In the case of “HA-Gαo^(WT) (from UniProt P09471) Q205L; E237K”, the response in assay [3] (setting [4]) was 0.14 BRET ratio.

Turning to “HA-Gαo^(WT) (from UniProt P09471) Q205L; E246G”, in assay [3] (setting [4]), the response was 0.08 BRET ratio.

In the case of “HA-Gαo^(WT) (from UniProt P09471) Q205L; G203E”, the response in assay [3] (setting [4]) was 0.085 BRET ratio.

As for “HA-Gαo^(WT) (from UniProt P09471) Q205L; N242T”, the response in assay [3] (setting [4]) is 0.41 BRET ratio.

Turning to “HA-Gαo^(WT) (from UniProt P09471) Q205L; R209C”, the response in assay [3] (setting [4]) stood at 0.035 BRET ratio.

Consider “HA-Gαo^(WT) (from UniProt P09471) Q205L; R209H”, for which, in assay [3] (setting [4]), the response was 0.04 BRET ratio.

With HA-Gαo^(WT) (from UniProt P09471) R209C, the response in assay [1] (10 μM DAMGO, parent: est. 0.32) was found to be 0.04 BRET ratio; in assay [1] (vehicle, parent: est. 0.12), 0.03 BRET ratio; in assay [2], 0.012 Net BRET.

Turning to HA-Gαo^(WT) (from UniProt P09471) R209H, the response in assay [1] (10 μM DAMGO, parent: est. 0.32) is 0.045 BRET ratio; in assay [1] (vehicle, parent: est. 0.12) it was 0.035 BRET ratio; in assay [2], 0.015 Net BRET.
